Patent CN116284426A

Columns and labels:
[1] = molecular target: CD3εδ-ECD-his (CD3εδ异二聚体蛋白) (UniProt P07766); assay: ELISA, CD3εδ-ECD-his coated at 1 ug/mL (Table 20)
[2] = molecular target: CD3εδ-ECD-his (CD3εδ异二聚体蛋白) (UniProt P07766); assay: ELISA, CD3εδ-ECD-his coated at 1 ug/mL, anti-human IgG Fab HRP (Table 15)

B1: SP34 (humanized anti-CD3 monoclonal antibody) (antibody, human IgG1, kappa, V domains shown)
VH: EVQLVESGGGLVQPGGSLRLSCAASGFTFNTYAMNWVRQAPGKGLEWVARIRSKYNNYATYYADSVKDRFTISRDDSKNTLYLQMNSLRAEDTAVYYCVRHGNFGNSYVSWFAYWGQGTLVTVSS
VL: QAVVTQEPSLTVSPGGTVTLTCRSSTGAVTTSNYANWVQQKPGQAPRGLIGGTNKRAPGVPARFSGSLLGGKAALTLSGAQPEDEAEYYCALWYSNLWVFGQGTKVEIKR
- EC50 [1]: 0.118 nM
- EC50 [2]: 0.13 nM
